This note sets out measurements from PMC12280161, “Reconstitution of circadian clock in synthetic cells reveals principles of timekeeping” (Nature Communications, 2025).

The assay addresses T1, KaiC (FLAG-seKaiC-1-519) (Synechococcus elongatus, UniProt Q79PF4 1-519, initially hyperphosphorylated due to its preparation and storage at low temperatures (residues not given)).
T1 construct: KaiC of Synechococcus elongatus, residues 1-519; In the model KaiC is assigned as hexamers; not measured here
T1 sequence (looked up): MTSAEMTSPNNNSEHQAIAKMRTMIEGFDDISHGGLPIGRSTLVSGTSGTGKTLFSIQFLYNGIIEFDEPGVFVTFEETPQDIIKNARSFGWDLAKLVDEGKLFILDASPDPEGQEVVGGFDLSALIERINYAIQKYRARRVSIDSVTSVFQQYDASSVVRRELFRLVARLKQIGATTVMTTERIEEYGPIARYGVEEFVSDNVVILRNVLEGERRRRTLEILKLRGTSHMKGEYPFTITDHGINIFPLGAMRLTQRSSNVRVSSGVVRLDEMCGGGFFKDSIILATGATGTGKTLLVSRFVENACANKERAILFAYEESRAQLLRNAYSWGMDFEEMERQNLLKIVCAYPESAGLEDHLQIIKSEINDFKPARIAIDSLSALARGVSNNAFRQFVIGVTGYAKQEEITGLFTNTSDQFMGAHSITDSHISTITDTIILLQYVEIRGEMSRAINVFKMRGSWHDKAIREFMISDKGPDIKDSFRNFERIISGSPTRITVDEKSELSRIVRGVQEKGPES
Nature of the assay: other fluorescence titration; fluorescence quenching of KaiB-6IAF: 25 µL of a 50:50 mixture of KaiB:KaiB-6IAF at 7 µM added to 25 µL of serially diluted KaiC in a black clear-bottom 96-well plate; mean intensity followed for 22 h; without KaiA. Particulars: both partners purified.

B1: KaiB-6IAF (seKaiB-1-102-K25C-FLAG labelled with 6-iodoacetamidofluorescein) (natural protein, Synechococcus elongatus, UniProt Q79PF5 1-102, looked up)
chain: MSPRKTYILKLYVAGNTPNSVRALCTLKNILEVEFQGVYALKVIDVLKNPQLAEEDKILATPTLAKVLPLPVRRIIGDLSDREKVLIGLDLLYGELQDSDDF
modifications: 6-(iodoacetamido)fluorescein (6IAF), thiol-reactive fluorophore, on KaiB-K25C
notes: KaiB of Synechococcus elongatus, residues 1-102, with K25C; In the model KaiB is assigned as tetramers; not measured here; also called fluorescent KaiB; fluorescently labeled KaiB
As to B1, the binding result is reported as “binds”.

B2: KaiB (seKaiB-1-102-FLAG) (natural protein, Synechococcus elongatus, UniProt Q79PF5 1-102, looked up)
chain: MSPRKTYILKLYVAGNTPNSVRALKTLKNILEVEFQGVYALKVIDVLKNPQLAEEDKILATPTLAKVLPLPVRRIIGDLSDREKVLIGLDLLYGELQDSDDF
notes: KaiB of Synechococcus elongatus, residues 1-102; Present as half of the 50:50 KaiB:KaiB-6IAF mixture; gives no signal of its own; also called unlabelled KaiB
For the molecule B2, the binding result is on record as “binds”.
